Measured values: publication PMC5025763, “Bach2–Batf interactions control Th2-type immune response by regulating the IL-4 amplification loop” (Nature Communications, 2016)

Target: T1, Flag-tagged Bach2 protein (mouse, UniProt P97303 1-839)
T1 construct: Bach2, mouse (murine Bach2 cDNA is named in the methods of the luciferase assay); The species is stated only for the cDNA cloned into pCMV-Myc; also called WT Bach2 protein; BTB and CNC homology 1, basic leucine zipper transcription factor 2; source: cell-free protein synthesis
T1 sequence (P97303 whole entry): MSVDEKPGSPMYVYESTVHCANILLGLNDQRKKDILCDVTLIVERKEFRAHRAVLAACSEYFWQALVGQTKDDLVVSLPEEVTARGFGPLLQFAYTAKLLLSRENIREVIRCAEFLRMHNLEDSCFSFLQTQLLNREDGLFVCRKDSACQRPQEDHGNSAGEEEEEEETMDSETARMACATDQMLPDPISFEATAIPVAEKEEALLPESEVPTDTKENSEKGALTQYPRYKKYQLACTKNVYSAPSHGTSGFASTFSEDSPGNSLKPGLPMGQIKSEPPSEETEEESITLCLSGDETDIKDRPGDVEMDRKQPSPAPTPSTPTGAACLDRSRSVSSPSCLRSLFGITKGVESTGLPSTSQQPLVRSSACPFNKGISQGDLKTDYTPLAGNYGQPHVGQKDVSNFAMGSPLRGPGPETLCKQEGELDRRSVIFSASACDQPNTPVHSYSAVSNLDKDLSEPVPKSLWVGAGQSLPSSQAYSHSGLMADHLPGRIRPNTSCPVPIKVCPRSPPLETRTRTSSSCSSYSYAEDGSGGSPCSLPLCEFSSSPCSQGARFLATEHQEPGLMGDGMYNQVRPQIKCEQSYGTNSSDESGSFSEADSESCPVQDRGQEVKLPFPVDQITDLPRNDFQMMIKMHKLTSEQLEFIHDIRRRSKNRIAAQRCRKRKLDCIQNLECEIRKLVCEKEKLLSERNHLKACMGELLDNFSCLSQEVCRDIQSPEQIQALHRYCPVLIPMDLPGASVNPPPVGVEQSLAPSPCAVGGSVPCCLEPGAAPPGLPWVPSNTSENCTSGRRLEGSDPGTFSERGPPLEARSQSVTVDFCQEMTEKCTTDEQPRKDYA
Assay: AlphaScreen or HTRF; Flag-tagged Bach2 mixed with biotinylated transcription factors, 26 °C for 1 h; then protein A-conjugated acceptor beads, streptavidin-coated donor beads and anti-Flag M2 antibody, 26 °C for 1 h; proteins from cell-free synthesis; intensities relative to DHFR
Conditions: partners not purified

- fold binding strength against the Batf–Bach2 interaction: ~20 fold
B1: MafK (natural protein)
chain: not shown
notes: MafK (small Maf protein); Named only in the discussion as measured in the authors' AlphaScreen system
